B1: LINE1-full (parent)
chain: UACGUAGGUGGUUUUCCCCUGAUAGUGCUAAGGGGGCCUGGAAGUUUGGACUGGGCAGAGCUCAACACAGCGUGGCAAAGUGGCUGUGGCUAGACUGCCUCUCUGGAUUCCUCGUCACUCAGCAGGGCAUCUCUGAGAGAAAUGCC

Variants of: B1
Test: self-cleavage, relative activity (ratio to wild type); higher = more cleavage; in vitro, sequencing; the parent is a self-cleaving ribozyme

Variant | self-cleavage
C103A A138G | 1.6
C103A A140G | 1.23
C103A G135A | 0.87
C103A U112C | 1.01
C103A U112G | 0.72
C103A U130C | 1.9
C103U A107U | 1.2
C103U A117C | 2.49
C103U A117G | 1.41
C103U A124G | 1.56
C103U A136G | 1.39
C103U A138G | 1.49
C103U A138U | 1.07
C103U A140G | 1.44
C103U G114A | 1.19
C103U U109C | 0.53
C103U U119C | 1.7
U104A | 1.14
U104A A107G | 0.9
U104A A117U | 1.31
U104A A124U | 1.25
U104A A129G | 1.27
U104A A140G | 0.47
U104A A142G | 1.43

Variant | self-cleavage
U104A C116A | 1.11
U104A C146U | 1.35
U104A G114U | 1.09
U104A G122C | 1.48
U104A U108C | 1.14
U104A U112A | 1.4
U104A U112C | 1.32
U104A U119C | 1.47
U104A U119G | 0.64
U104A U130C | 1.51
U104A U134A | 1.35
U104A U134C | 1.53
U104A U143A | 0.88
U104C | 1.65
U104C A107G | 1.86
U104C A117U | 1.73
U104C A121G | 1.56
U104C A121U | 1.59
U104C A124G | 2.57
U104C A129G | 2.04
U104C A129U | 1.73
U104C A136G | 1.62
U104C A138G | 1.87
U104C A138U | 1.87

Variant | self-cleavage
U104C C123A | 1.73
U104C C145G | 2.3
U104C G125U | 1.68
U104C G127A | 1.47
U104C G135A | 1.52
U104C G144A | 2.03
U104C U108A | 2.04
U104C U109C | 1.39
U104C U109G | 1.53
U104C U112C | 1.66
U104C U115A | 0.22
U104C U130C | 1.71
U104C U134G | 0.75
U104C U143A | 1.56
U104C U143C | 2.1
U104G | 1.19
U104G A140C | 0.28
U104G C123U | 1.25
U104G U130A | 0
U104G U132A | 1.06
U104G U134C | 1.39
G105A A117G | 1.59
G105A A117U | 1.74
G105A A141G | 0.87

Variant | self-cleavage
G105A A141U | 0
G105A A142G | 1.24
G105A G127U | 1.31
G105A U115C | 1.54
G105A U134A | 1.54
G105A U134C | 1.44
G105U A124U | 0.22
G105U A140U | 1.53
G105U G144A | 1.31
G105U U108A | 1.12
G105U U108C | 1.98
G105U U109C | 1.93
G106A A124G | 1.81
G106A A142U | 1.29
G106A G135U | 1.88
G106A U108C | 1.61
G106A U109C | 1.86
G106A U112A | 1.64
G106A U115C | 1.43
G106A U119A | 0.75
G106A U119C | 1.58
G106A U134G | 1.86
G106C U108C | 2.2
G106U A117U | 1.26

Variant | self-cleavage
G106U A129G | 0.98
G106U G126A | 1.15
G106U U132C | 1.31
A107C | 1.56
A107C G114A | 1.74
A107C U108A | 1.36
A107C U109C | 2.7
A107C U143C | 1.67
A107G | 1.46
A107G A117C | 0.66
A107G A117G | 1.85
A107G A117U | 1.85
A107G A124U | 1.27
A107G A129U | 1.84
A107G A136G | 1.31
A107G A138U | 1.44
A107G A140U | 0.94
A107G A141C | 1.51
A107G A141G | 1.64
A107G A142G | 1.83
A107G C131U | 1.83
A107G G126A | 1.71
A107G G127A | 1.81
A107G G127C | 1.72

Variant | self-cleavage
A107G U108A | 1.47
A107G U108G | 1.53
A107G U109A | 1.83
A107G U112A | 1.45
A107G U112C | 1.68
A107G U115A | 0.95
A107G U115C | 1.99
A107G U130A | 1.74
A107G U130G | 1.15
A107G U132C | 1.62
A107G U134A | 1.45
A107G U134C | 1.33
A107G U143C | 1.38
A107U | 1.46
A107U A117C | 2.32
A107U A124G | 1.29
A107U A124U | 1.61
A107U A138U | 2.59
A107U A140G | 1.58
A107U C113A | 1.68
A107U G144A | 1.79
A107U U112C | 1.84
A107U U132A | 1.88
A107U U143A | 1.48

Variant | self-cleavage
U108A | 1.24
U108A A124U | 1.35
U108A A129U | 1.92
U108A A138C | 1.32
U108A A140G | 1.58
U108A C133A | 1.42
U108A G114A | 1.09
U108A G122U | 0.97
U108A U112C | 2.53
U108A U115A | 0.6
U108A U119A | 0.96
U108A U119C | 1.41
U108A U130C | 1.51
U108A U132A | 1.24
U108A U132C | 1.65
U108A U134C | 1.19
U108C | 1.64
U108C A117U | 1.83
U108C A124G | 1.47
U108C A124U | 1.81
U108C A129C | 1.69
U108C A129G | 1.57
U108C A129U | 1.89
U108C A136U | 1.93

Variant | self-cleavage
U108C A138U | 1.68
U108C A140U | 1.66
U108C C118U | 2.01
U108C C128U | 1.78
U108C G114A | 1.71
U108C G125A | 1.22
U108C G126A | 2.16
U108C G137A | 0.89
U108C G139A | 0
U108C U112A | 1.94
U108C U112C | 1.74
U108C U115A | 1.86
U108C U119A | 1.53
U108C U130A | 2.75
U108C U132A | 2.04
U108C U132C | 1.83
U108C U134A | 2.21
U108C U134C | 1.57
U108C U143A | 0.26
U108G | 1.5
U108G A140G | 0.29
U108G U119C | 2.59
U108G U134C | 2.7
U108G U143C | 1.14

Variant | self-cleavage
U109A | 1.31
U109A A129U | 2.02
U109A A136G | 1.4
U109A A136U | 2.61
U109A A138G | 0.7
U109A A140G | 0.96
U109A C111U | 1.56
U109A C145G | 0.98
U109A G122A | 1.63
U109A G125A | 1.34
U109A G139A | 1.49
U109A U112A | 1.35
U109A U112C | 1.08
U109A U115A | 1.47
U109A U115C | 1.43
U109A U119C | 1.95
U109A U132C | 1.37
U109A U134A | 0.68
U109A U134C | 1.67
U109A U134G | 1.25
U109C | 1.2
U109C A117G | 1.7
U109C A124C | 1.41
U109C A124U | 1.64

Variant | self-cleavage
U109C A129G | 1.3
U109C A129U | 1.97
U109C A136G | 1.75
U109C A140G | 0.48
U109C A140U | 1.15
U109C A141G | 1.46
U109C C110A | 1.55
U109C C128A | 1.47
U109C C146U | 1.53
U109C G122A | 1.81
U109C G125U | 1.27
U109C G127A | 1.49
U109C G127U | 1.25
U109C G135A | 1.71
U109C G137A | 1.45
U109C U112A | 2.11
U109C U112C | 1.69
U109C U115G | 1.04
U109C U134C | 1.21
U109C U143C | 1.29
U109G | 0.63
U109G A138U | 1.07
U109G A140G | 0.21
U109G A141G | 0.93

Variant | self-cleavage
U109G A141U | 1.08
U109G U112C | 0.19
U109G U143C | 0.87
C110A A121U | 1.32
C110A A124G | 1.62
C110A A141G | 1.84
C110A G122A | 0.9
C110A U115C | 1.47
C110A U130C | 1.04
C110G A141G | 1.37
C110U A117G | 2.38
C110U A121U | 1.43
C110U A141G | 1.4
C110U A142G | 2.11
C110U C113A | 1.35
C110U C146U | 1.82
C110U G122A | 1.09
C110U U112C | 2.13
C111U A121C | 1.54
C111U A138G | 2.01
C111U C116A | 1.37
C111U G114A | 1.12
C111U U115A | 1.77
C111U U130A | 0.93

Variant | self-cleavage
C111U U134C | 2.26
C111U U143C | 1.13
U112A A117U | 1.36
U112A A124U | 1.61
U112A A129G | 0.98
U112A A136U | 1.67
U112A A140G | 1.46
U112A A142C | 1.46
U112A A142G | 1.57
U112A C113U | 1.6
U112A G114A | 0.38
U112A G144A | 1.32
U112A U115A | 1.4
U112A U132C | 1.42
U112A U143A | 1.38
U112C A117G | 1.42
U112C A117U | 1.39
U112C A121G | 1.71
U112C A121U | 1.09
U112C A124U | 1.21
U112C A129G | 1.42
U112C A138C | 1.98
U112C A138G | 1.58
U112C A140U | 1.29

Variant | self-cleavage
U112C A141U | 1.47
U112C C113U | 1.28
U112C C116G | 2.13
U112C G122C | 1.18
U112C G122U | 1.86
U112C G137A | 1.17
U112C G137U | 0.88
U112C U115A | 1.39
U112C U119C | 1.6
U112C U130C | 1.61
U112C U130G | 1.56
U112C U132C | 1.28
U112C U134G | 1.34
U112C U143A | 1.59
U112C U143C | 1.54
U112G A136G | 2.3
U112G A136U | 0.88
U112G C128U | 2.54
C113A | 1.01
C113A A117U | 1.03
C113A A121G | 1.25
C113A A140G | 1.06
C113A A141G | 1.23
C113A A142G | 0.47

Variant | self-cleavage
C113A C145U | 1.25
C113A U143C | 0.76
C113G | 1.58
C113G U143C | 1.36
C113U | 0.98
C113U A121U | 1.53
C113U A124U | 1.3
C113U A136G | 1.58
C113U A138G | 1.54
C113U A138U | 1.21
C113U G135A | 1.18
C113U G144A | 0.31
C113U U132C | 0.89
C113U U134A | 0.47
C113U U134C | 0.97
C113U U143A | 1.1
G114A A121U | 1.37
G114A A124C | 1.62
G114A A124G | 1.5
G114A A136G | 1.28
G114A A140C | 1.27
G114A A140G | 1.14
